The RNAGym collection of RNA variant scans (doi:10.1093/nar/gkz1192)

B1: CPEB3 Ribozyme (parent)
chain: UAACAGGGGGCCACAGCAGAAGCGUUCACGUCGCAGCCCCUGUCAGAUUCUGGUGAAUCUGCGAAUUCUGCUGUAUAUCUC

Variants of: B1
Test: self-cleavage, relative activity (ratio to wild type); higher = more cleavage; in vitro, sequencing
Method in brief: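 Libraries of CPEB3 self-cleaving ribozyme mutants came from rounds of error-prone PCR and carried barcodes, which DNA sequencing matched to variants. In vitro transcription used T7 RNA polymerase at 37°C for 5 hours, with a further 15 min in DNase I before EDTA stopped the reaction; the ribozymes cleaved during both steps. The RNA was reverse transcribed with template switching and sequenced on Illumina. Relative activity is the cleaved/total read fraction of a variant divided by that of the unmutated ribozyme, averaged over three batches with at least 5 reads.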
Work on UAACAGGGGGCCACAGCAGAAGCGUUCACGUCACAGCCCCUGUCAGAUUCUGGUGAAUCUGCGACUUCUGCUGUAUAUCUC [G33A A65C] yielded a self-cleavage of 0.11. Variant UAACAGGGGGCCACAGCAGAAGCGUUCACGUCACAGCCCCUGUCAGAUUCUGGUGAAUCUGCGAGUUCUGCUGUAUAUCUC [G33A A65G] has a self-cleavage of 0.35. Variant UAACAGGGGGCCACAGCAGAAGCGUUCACGUUGCAGCCCCUGUCAGAUUCUGGUGAAUCUGCGAAUUCUGCUGUAUAUCCC [C32U U80C] has a self-cleavage of 0.44. UAACAGGGGGCCACAGCAGAAGCGUUCACGUUGCAGCCCCUGUCAGACUCUGGUGAAUCUGCGAAUUCUGCUGUAUAUCUC [C32U U48C] showed a self-cleavage of 0.13. For UAACAGGGGGCCACAGCAGAAGCGUUCACGUCACAGCCCCUGUCAGAUUCUGGUGAAUCUGCGAAUUGUGCUGUAUAUCUC [G33A C68G], the self-cleavage was 0.11. In the case of UAACAGGGGGCCACAGCAGAAGCGUUCACGUCACAGCCCCUGUCAGAUUCUGGUGAAUCUGCGAAUUUUGCUGUAUAUCUC [G33A C68U], the self-cleavage is reported as 0.19. Work on UAACAGGGGGCCACAGCAGAAGCGUUCACGUUGCAGCCCCUGUCAAAUUCUGGUGAAUCUGCGAAUUCUGCUGUAUAUCUC [C32U G46A] yielded a self-cleavage of 0.15. UAACAGGGGGCCACAGCAGAAGCGUUCACGUUGCAGCCCCUGUCAGAUUCUGGUGAAUCUGCGAAUUCUACUGUAUAUCUC [C32U G70A] showed a self-cleavage of 0.21. UAACAGGGGGCCACAGCAGAAGCGUUCACGUUGCAGCCCCUGUCAGAUUCUGGUAAAUCUGCGAAUUCUGCUGUAUAUCUC [C32U G55A] showed a self-cleavage of 0.14. With UAACAGGGGGCCACAGCAGAAGCGUUCACGUCACAGCCCCUGUCAGAUUCUGGUGAAUCUGCGAAUUCUGCUGUAUGUCUC [G33A A77G] the self-cleavage was 0.18. Work on UAACAGGGGGCCACAGCAGAAGCGUUCACGUCACAGCCCCUGUCAGAUUCUGGUGAAUCUGCGAAUUCUGCUGUAUUUCUC [G33A A77U] yielded a self-cleavage of 0.23. With UAACAGGGGGCCACAGCAGAAGCGUUCACGUUGCAGCCCCUGUCAGAUUCUGGUGAAUCUGCGAAUCCUGCUGUAUAUCUC [C32U U67C] the self-cleavage was 0.19. Work on UAACAGGGGGCCACAGCAGAAGCGUUCACGUUGCAGCCCCUGUCAGAUUCUGGUGAAUCUGCGAAUUCUGCUGGAUAUCUC [C32U U74G] yielded a self-cleavage of 0.09. In the case of UAACAGGGGGCCACAGCAGAAGCGUUCACGUUGCAGCCCCUGUCAGAUUCUGGUGAAUCUGCGAAUUCUGCUGCAUAUCUC [C32U U74C], the self-cleavage is reported as 0.38. UAACAGGGGGCCACAGCAGAAGCGUUCACGUCACAGCCCCUGUCAGGUUCUGGUGAAUCUGCGAAUUCUGCUGUAUAUCUC [G33A A47G] showed a self-cleavage of 0.4. Variant UAACAGGGGGCCACAGCAGAAGCGUUCACGUUGCAGCCCCUAUCAGAUUCUGGUGAAUCUGCGAAUUCUGCUGUAUAUCUC [C32U G42A] has a self-cleavage of 0.19. UAACAGGGGGCCACAGCAGAAGCGUUCACGUUGCAGCCCCUGUCAGAUUCUGGUGAAUCUGCGAAUUCCGCUGUAUAUCUC [C32U U69C] showed a self-cleavage of 0.17. In the case of UAACAGGGGGCCACAGCAGAAGCGUUCACGUUGCAGCCCCUGUCAGAUUCUGGUGAAUCUGCGAAUUCAGCUGUAUAUCUC [C32U U69A], the self-cleavage is reported as 0.23. UAACAGGGGGCCACAGCAGAAGCGUUCACGUCACUGCCCCUGUCAGAUUCUGGUGAAUCUGCGAAUUCUGCUGUAUAUCUC [G33A A35U] gave a self-cleavage of 0.21. UAACAGGGGGCCACAGCAGAAGCGUUCACGUCACGGCCCCUGUCAGAUUCUGGUGAAUCUGCGAAUUCUGCUGUAUAUCUC [G33A A35G] gave a self-cleavage of 0.39. UAACAGGGGGCCACAGCAGAAGCGUUCACGUUGCAGCCCCUGUCAGAUUCUGGUGAAUCCGCGAAUUCUGCUGUAUAUCUC [C32U U60C] showed a self-cleavage of 0.18. Work on UAACAGGGGGCCACAGCAGAAGCGUUCACGUUGCAGCCCCUGUCAGAUUCUGGUGAAUCAGCGAAUUCUGCUGUAUAUCUC [C32U U60A] yielded a self-cleavage of 0.21. Work on UAACAGGGGGCCACAGCAGAAGCGUUCACGUUGCAGCCCCUGUCAGAUUCUGGUGAAUCGGCGAAUUCUGCUGUAUAUCUC [C32U U60G] yielded a self-cleavage of 0.4. UAACAGGGGGCCACAGCAGAAGCGUUCACGUUGCAGCCCCUGUCAGAUUCUGGAGAAUCUGCGAAUUCUGCUGUAUAUCUC [C32U U54A] showed a self-cleavage of 0.2. UAACAGGGGGCCACAGCAGAAGCGUUCACGUUGCAGCCCCUGUCAGAUUCUGGCGAAUCUGCGAAUUCUGCUGUAUAUCUC [C32U U54C] gave a self-cleavage of 0.33. UAACAGGGGGCCACAGCAGAAGCGUUCACGUUGCAGCCCCUGUCAGAUUCUGGUGAACCUGCGAAUUCUGCUGUAUAUCUC [C32U U58C] showed a self-cleavage of 0.35. UAACAGGGGGCCACAGCAGAAGCGUUCACGUUGCAGCCCCUGUCAGAUUCUGGUGAAACUGCGAAUUCUGCUGUAUAUCUC [C32U U58A] gave a self-cleavage of 0.14. Variant UAACAGGGGGCCACAGCAGAAGCGUUCACGUCACAGCCCCUGUCAGAUUCUGGUGAAUCUGUGAAUUCUGCUGUAUAUCUC [G33A C62U] has a self-cleavage of 0.11. UAACAGGGGGCCACAGCAGAAGCGUUCACGUCACAGCCCCUGUCAGAUUCUGGUGAAUCUGAGAAUUCUGCUGUAUAUCUC [G33A C62A] gave a self-cleavage of 0.37. For UAACAGGGGGCCACAGCAGAAGCGUUCACGUCACAGCCCCUGUCAGAUUCUGGUGAAUCUGCGAAUUCUGCUGUAUAUAUC [G33A C79A], the self-cleavage was 0.23. In the case of UAACAGGGGGCCACAGCAGAAGCGUUCACGUUGCAGCCCCUGUCAGAUUCUGGUGAAUCUGCAAAUUCUGCUGUAUAUCUC [C32U G63A], the self-cleavage is reported as 0.46. Work on UAACAGGGGGCCACAGCAGAAGCGUUCACGUUGCAGCCCCUGUCAGAUUCUGGUGAAUCUGCGAAUUCUGCUGUAUACCUC [C32U U78C] yielded a self-cleavage of 0.25. With UAACAGGGGGCCACAGCAGAAGCGUUCACGUCACAGCCCCUGUCAGAUUCUGGUGAAUCUGCGUAUUCUGCUGUAUAUCUC [G33A A64U] the self-cleavage was 0.28. Variant UAACAGGGGGCCACAGCAGAAGCGUUCACGUCACAGCCCCUGUCAGAUUCUGGUGAAUCUGCGGAUUCUGCUGUAUAUCUC [G33A A64G] has a self-cleavage of 0.16.
